US20240270846A1 (published 2024)
Substitutions are numbered along the chain they refer to.

B1: CE115HA000 H chain altered form I51D (antibody, human IgG1, kappa, L234A L235A, N297A, name in Kabat numbering)
heavy: QVQLVESGGGVVQPGRSLRLSCAASGFTFSNAWMHWVRQAPGKGLEWVAQDKAKSNNYATYYAESVKGRFTISRDDSKNSLYLQMNSLKTEDTAVYYCRYVHYGAYYGVDAWGQGTTVTVSSASTKGPSVFPLAPSSKSTSGGTAALGCLVKDYFPEPVTVSWNSGALTSGVHTFPAVLQSSGLYSLSSVVTVPSSSLGTQTYICNVNHKPSNTKVDKKVEPKSCDKTHTCPPCPAPEAAGGPSVFLFPPKPKDTLMISRTPEVTCVVVDVSHEDPEVKFNWYVDGVEVHNAKTKPREEQYASTYRVVSVLTVLHQDWLNGKEYKCKVSNKALPAPIEKTISKAKGQPREPQVYTLPPSRCELTKNQVSLSCAVKGFYPSDIAVEWESNGQPENNYKTTPPVLDSDGSFFLVSKLTVDKSRWQQGNVFSCSVMHEALHNHYTQKSLSLSPDYKDDDDK
chain: EPKSSDKTHTCPPCPAPELLGGPSVFLFPPKPKDTLMISRTPEVTCVVVDVSHEDPEVKFNWYVDGVEVHNAKTKPREEQYNSTYRVVSVLTVLHQDWLNGKEYKCKVSNKALPAPIEKTISKAKGQPREPQVCTLPPSRDELTKNQVSLWCLVKGFYPSDIAVEWESNGQPENNYKTTPPVLDSDGSFFLYSKLTVDKSRWQQGNVFSCSVMHEALHNRYTQKSLSLSP
light: DIVMTQSPLSLPVTPGEPASISCRSSQSLVHSNRNTYLHWYQQKPGQAPRLLIYKVSNRFSGVPDRFSGSGSGTDFTLKISRVEAEDVGVYYCGQGTQVPYTFGQGTKLEIKRTVAAPSVFIFPPSDEQLKSGTASVVCLLNNFYPREAKVQWKVDNALQSGNSQESVTEQDSKDSTYSLSSTLTLSKADYEKHKVYACEVTHQGLSSPVTKSFNRGEC
notes: one-arm antibody
B2: CE115HA000 H chain altered form K43E (antibody, human IgG1, kappa, L234A L235A, N297A, name in Kabat numbering)
heavy: B1 heavy with K43E, D51I
chain: B1 chain
light: B1 light
notes: one-arm antibody
B3: CE115HA000 H chain altered form K52D (antibody, human IgG1, kappa, L234A L235A, N297A, name in Kabat numbering)
heavy: B1 heavy with D51I, K52D
chain: B1 chain
light: B1 light
notes: one-arm antibody
B4: CE115HA000 H chain altered form K52R (antibody, human IgG1, kappa, L234A L235A, N297A, name in Kabat numbering)
heavy: B1 heavy with D51I, K52R
chain: B1 chain
light: B1 light
notes: one-arm antibody
B5: CE115HA000 H chain altered form K52I (antibody, human IgG1, kappa, L234A L235A, N297A, name in Kabat numbering)
heavy: B1 heavy with D51I, K52I
chain: B1 chain
light: B1 light
notes: one-arm antibody
B6: CE115HA000 H chain altered form K52bA (antibody, human IgG1, kappa, L234A L235A, N297A, name in Kabat numbering)
heavy: B1 heavy with D51I, K54A
chain: B1 chain
light: B1 light
notes: one-arm antibody
B7: CE115HA000 H chain altered form K52Y (antibody, human IgG1, kappa, L234A L235A, N297A, name in Kabat numbering)
heavy: B1 heavy with D51I, K52Y
chain: B1 chain
light: B1 light
notes: one-arm antibody
B8: CE115HA000 H chain altered form K43Q (antibody, human IgG1, kappa, L234A L235A, N297A, name in Kabat numbering)
heavy: B1 heavy with K43Q, D51I
chain: B1 chain
light: B1 light
notes: one-arm antibody
B9: CE115HA000 H chain altered form K52bR (antibody, human IgG1, kappa, L234A L235A, N297A, name in Kabat numbering)
heavy: B1 heavy with D51I, K54R
chain: B1 chain
light: B1 light
notes: one-arm antibody
B10: CE115HA000 H chain altered form K52bQ (antibody, human IgG1, kappa, L234A L235A, N297A, name in Kabat numbering)
heavy: B1 heavy with D51I, K54Q
chain: B1 chain
light: B1 light
notes: one-arm antibody
B11: CE115HA000 H chain altered form K52H (antibody, human IgG1, kappa, L234A L235A, N297A, name in Kabat numbering)
heavy: B1 heavy with D51I, K52H
chain: B1 chain
light: B1 light
notes: one-arm antibody
B12: CE115HA000 H chain altered form K52N (antibody, human IgG1, kappa, L234A L235A, N297A, name in Kabat numbering)
heavy: B1 heavy with D51I, K52N
chain: B1 chain
light: B1 light
notes: one-arm antibody
B13: CE115HA000 H chain altered form K52E (antibody, human IgG1, kappa, L234A L235A, N297A, name in Kabat numbering)
heavy: B1 heavy with D51I, K52E
chain: B1 chain
light: B1 light
notes: one-arm antibody
B14: CE115HA000 H chain altered form K52bL (antibody, human IgG1, kappa, L234A L235A, N297A, name in Kabat numbering)
heavy: B1 heavy with D51I, K54L
chain: B1 chain
light: B1 light
notes: one-arm antibody
B15: CE115HA000 H chain altered form K52bY (antibody, human IgG1, kappa, L234A L235A, N297A, name in Kabat numbering)
heavy: B1 heavy with D51I, K54Y
chain: B1 chain
light: B1 light
notes: one-arm antibody
B16: CE115HA000 H chain altered form K52W (antibody, human IgG1, kappa, L234A L235A, N297A, name in Kabat numbering)
heavy: B1 heavy with D51I, K52W
chain: B1 chain
light: B1 light
notes: one-arm antibody
B17: CE115HA000 H chain altered form K52F (antibody, human IgG1, kappa, L234A L235A, N297A, name in Kabat numbering)
heavy: B1 heavy with D51I, K52F
chain: B1 chain
light: B1 light
notes: one-arm antibody
B18: CE115HA000 H chain altered form K52S (antibody, human IgG1, kappa, L234A L235A, N297A, name in Kabat numbering)
heavy: B1 heavy with D51I, K52S
chain: B1 chain
light: B1 light
notes: one-arm antibody
B19: CE115HA000 H chain altered form K52bN (antibody, human IgG1, kappa, L234A L235A, N297A, name in Kabat numbering)
heavy: B1 heavy with D51I, K54N
chain: B1 chain
light: B1 light
notes: one-arm antibody
B20: CE115HA000 H chain altered form K52bD (antibody, human IgG1, kappa, L234A L235A, N297A, name in Kabat numbering)
heavy: B1 heavy with D51I, K54D
chain: B1 chain
light: B1 light
notes: one-arm antibody
B21: CE115HA000 H chain altered form N31A (antibody, human IgG1, kappa, L234A L235A, N297A, name in Kabat numbering)
heavy: B1 heavy with N31A, D51I
chain: B1 chain
light: B1 light
notes: one-arm antibody
B22: CE115HA000 H chain altered form I51E (antibody, human IgG1, kappa, L234A L235A, N297A, name in Kabat numbering)
heavy: B1 heavy with D51E
chain: B1 chain
light: B1 light
notes: one-arm antibody
B23: CE115HA000 H chain altered form K52bS (antibody, human IgG1, kappa, L234A L235A, N297A, name in Kabat numbering)
heavy: B1 heavy with D51I, K54S
chain: B1 chain
light: B1 light
notes: one-arm antibody

Target: T1, CD3 epsilon homodimer protein (UniProt P07766 23-126)
T1 construct: also called CD3 (CD3 epsilon)
Experiment: SPR Biacore T200, CD3 epsilon homodimer on chip, antibody as analyte;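 further: homodimer amine-coupled to a CM4 sensor chip, run at 25 °C in HBS-EP+ buffer, with kinetic parameters derived in Biacore T200 Evaluation Software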

T1 sequence (P07766 23-126): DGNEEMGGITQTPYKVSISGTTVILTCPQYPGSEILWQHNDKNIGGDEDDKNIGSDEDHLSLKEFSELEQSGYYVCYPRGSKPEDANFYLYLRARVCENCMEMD

Row | KD ratio (KD of CE115HA000 / KD of altered form) | Binder
1 | 6.37 | B1
2 | 0.88 | B2
3 | 166 | B3
4 | 0.8 | B4
5 | 3.54 | B5
6 | 0.58 | B6
7 | 6.47 | B7
8 | 0.89 | B8
9 | 0.91 | B9
10 | 0.62 | B10
11 | 2.65 | B11
12 | 3.29 | B12
13 | 19.4 | B13
14 | 0.61 | B14
15 | 0.61 | B15
16 | 2.69 | B16
17 | 4.04 | B17
18 | 92.1 | B18
19 | 0.43 | B19
20 | 0.56 | B20
21 | 0.96 | B21
22 | 0.84 | B22
23 | 0.58 | B23
